Results: patent publication US20170088610A1

What was measured:
[1] = biological target: human nerve growth factor (human), P01138; test: cell-based or functional assay
[2] = biological target: human nerve growth factor (human), P01138
[3] = biological target: human nerve growth factor (human), P01138; remark: listed apart in the source

Sequence of human nerve growth factor (human), P01138 (P01138 122-241 limits assumed): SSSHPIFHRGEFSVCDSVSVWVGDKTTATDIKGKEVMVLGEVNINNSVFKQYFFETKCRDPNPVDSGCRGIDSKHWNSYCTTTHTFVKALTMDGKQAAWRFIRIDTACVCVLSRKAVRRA

B1: antibody E3 (full antibody) (antibody, human IgG2, kappa)
heavy: QVQLQESGPGLVKPSETLSLTCTVSGFSLIGYDLNWIRQPPGKGLEWIGIIWGDGTTDYNSAVKSRVTISKDTSKNQFSLKLSSVTAADTAVYYCARGGYWYATSYYFDYWGQGTLVTVSSASTKGPSVFPLAPCSRSTSESTAALGCLVKDYFPEPVTVSWNSGALTSGVHTFPAVLQSSGLYSLSSVVTVPSSNFGTQTYTCNVDHKPSNTKVDKTVERKCCVECPPCPAPPVAGPSVFLFPPKPKDTLMISRTPEVTCVVVDVSHEDPEVQFNWYVDGVEVHNAKTKPREEQFNSTFRVVSVLTVVHQDWLNGKEYKCKVSNKGLPSSIEKTISKTKGQPREPQVYTLPPSREEMTKNQVSLTCLVKGFYPSDIAVEWESNGQPENNYKTTPPMLDSDGSFFLYSKLTVDKSRWQQGNVFSCSVMHEALHNHYTQKSLSLSPGK
light: not shown
modifications: not checked
**Q.** Which results are given for B1?
**A.** NGF-elicited survival of E17/18 trigeminal neurons [1]: 20 nM; IC50 (read off the curve), NGF-dependent survival of E13.5 trigeminal neurons (0.4 ng/ml human NGF, 48 h) [2]: 8 pM; IC50 (read off the curve), NGF-dependent survival of E13.5 mouse trigeminal neurons (0.4 ng/ml human NGF, 48 h) (nM binding sites) [3]: 0.02
